The target in assay [1] is T1, human CD11a (human, UniProt P20701 26-1170).
T1 construct: whole, on cells; On Jurkat T-cells or human peripheral blood mononuclear cells, as part of LFA-1; also called CD11a on Jurkat cells; alpha subunit of LFA-1
Nature of the assay: FACScan, Jurkat cells. As to the method:
(§1) Aliquots of 10⁶ Jurkat T-cells were incubated with serial dilutions of humanized and control antibodies in PBS-0.1% BSA-10 mM sodium azide for 45 min at 4° C. The cells were washed and then incubated in fluorescein-conjugated goat anti-human F(ab′)₂ (Organon Teknika, Westchester, Pa.) for 45 min at 4° C. Cells were washed and analysed on a FACScan (Becton Dickinson, Mountain View, Calif.). 8×10³ cells were acquired by list mode and gated by forward light scatter versus side light scatter, thereby excluding dead cells and debris.

The target in assay [2] is T1, human CD11a. Briefly: cell-based or functional assay.
Assay [3] has as its target T2, rhesus CD11a (rhesus, UniProt H9Z8N3 26-1169).
T2 construct: whole, on cells; On rhesus peripheral blood lymphocytes or leukocytes; also called rhCD11a
T2 sequence: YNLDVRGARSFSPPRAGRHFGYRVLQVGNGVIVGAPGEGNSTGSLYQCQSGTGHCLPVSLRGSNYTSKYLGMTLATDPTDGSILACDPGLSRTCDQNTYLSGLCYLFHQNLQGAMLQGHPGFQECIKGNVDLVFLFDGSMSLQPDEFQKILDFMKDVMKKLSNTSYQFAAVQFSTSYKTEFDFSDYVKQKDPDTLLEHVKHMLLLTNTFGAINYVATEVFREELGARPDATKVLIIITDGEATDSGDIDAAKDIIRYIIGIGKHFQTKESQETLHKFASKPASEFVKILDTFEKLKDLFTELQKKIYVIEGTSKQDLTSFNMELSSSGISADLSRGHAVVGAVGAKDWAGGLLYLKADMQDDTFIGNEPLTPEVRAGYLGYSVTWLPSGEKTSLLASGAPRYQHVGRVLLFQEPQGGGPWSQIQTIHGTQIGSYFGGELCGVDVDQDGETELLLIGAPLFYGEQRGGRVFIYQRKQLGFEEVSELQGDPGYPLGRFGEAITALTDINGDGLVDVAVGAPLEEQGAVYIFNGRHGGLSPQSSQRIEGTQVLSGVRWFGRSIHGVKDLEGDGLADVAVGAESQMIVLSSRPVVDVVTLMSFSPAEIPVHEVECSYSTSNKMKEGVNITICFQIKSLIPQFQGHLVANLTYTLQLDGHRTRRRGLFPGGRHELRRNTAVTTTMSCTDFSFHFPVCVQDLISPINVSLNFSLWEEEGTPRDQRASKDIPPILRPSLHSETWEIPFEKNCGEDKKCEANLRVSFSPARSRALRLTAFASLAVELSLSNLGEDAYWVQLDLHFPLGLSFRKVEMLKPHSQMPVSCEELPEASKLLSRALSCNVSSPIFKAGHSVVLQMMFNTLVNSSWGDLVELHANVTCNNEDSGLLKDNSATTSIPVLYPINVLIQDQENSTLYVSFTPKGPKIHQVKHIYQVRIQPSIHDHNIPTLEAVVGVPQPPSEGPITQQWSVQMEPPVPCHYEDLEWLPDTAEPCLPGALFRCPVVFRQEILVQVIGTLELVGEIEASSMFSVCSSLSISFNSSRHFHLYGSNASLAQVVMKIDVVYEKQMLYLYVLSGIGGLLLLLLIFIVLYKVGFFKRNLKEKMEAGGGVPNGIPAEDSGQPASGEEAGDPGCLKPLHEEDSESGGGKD
Briefly: rhesus PBL binding.

The target of assay [4] is T2, rhesus CD11a. Nature of the assay: rhesus PBL binding. The source holds these as a separate data set.
Assay [5] deals with T2, rhesus CD11a. Briefly: rhesus PBL binding. This is another data set of the same source.
For assay [6], the target named is T1, human CD11a. Nature of the assay: FACScan, Jurkat cells. The gist of the method:
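Flow-cytometric binding to 10⁶ Jurkat T-cells with serially diluted humanized antibodies (including CDR alanine-scan mutants of HuIgG1), 45 min at 4 °C in PBS-0.1% BSA-10 mM sodium azide. Detected with fluorescein anti-human F(ab′)₂, 45 min at 4 °C; 8×10³ scatter-gated live cells acquired.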
This is another data set of the same source.
Target sequence in this assay (P20701 26-1170): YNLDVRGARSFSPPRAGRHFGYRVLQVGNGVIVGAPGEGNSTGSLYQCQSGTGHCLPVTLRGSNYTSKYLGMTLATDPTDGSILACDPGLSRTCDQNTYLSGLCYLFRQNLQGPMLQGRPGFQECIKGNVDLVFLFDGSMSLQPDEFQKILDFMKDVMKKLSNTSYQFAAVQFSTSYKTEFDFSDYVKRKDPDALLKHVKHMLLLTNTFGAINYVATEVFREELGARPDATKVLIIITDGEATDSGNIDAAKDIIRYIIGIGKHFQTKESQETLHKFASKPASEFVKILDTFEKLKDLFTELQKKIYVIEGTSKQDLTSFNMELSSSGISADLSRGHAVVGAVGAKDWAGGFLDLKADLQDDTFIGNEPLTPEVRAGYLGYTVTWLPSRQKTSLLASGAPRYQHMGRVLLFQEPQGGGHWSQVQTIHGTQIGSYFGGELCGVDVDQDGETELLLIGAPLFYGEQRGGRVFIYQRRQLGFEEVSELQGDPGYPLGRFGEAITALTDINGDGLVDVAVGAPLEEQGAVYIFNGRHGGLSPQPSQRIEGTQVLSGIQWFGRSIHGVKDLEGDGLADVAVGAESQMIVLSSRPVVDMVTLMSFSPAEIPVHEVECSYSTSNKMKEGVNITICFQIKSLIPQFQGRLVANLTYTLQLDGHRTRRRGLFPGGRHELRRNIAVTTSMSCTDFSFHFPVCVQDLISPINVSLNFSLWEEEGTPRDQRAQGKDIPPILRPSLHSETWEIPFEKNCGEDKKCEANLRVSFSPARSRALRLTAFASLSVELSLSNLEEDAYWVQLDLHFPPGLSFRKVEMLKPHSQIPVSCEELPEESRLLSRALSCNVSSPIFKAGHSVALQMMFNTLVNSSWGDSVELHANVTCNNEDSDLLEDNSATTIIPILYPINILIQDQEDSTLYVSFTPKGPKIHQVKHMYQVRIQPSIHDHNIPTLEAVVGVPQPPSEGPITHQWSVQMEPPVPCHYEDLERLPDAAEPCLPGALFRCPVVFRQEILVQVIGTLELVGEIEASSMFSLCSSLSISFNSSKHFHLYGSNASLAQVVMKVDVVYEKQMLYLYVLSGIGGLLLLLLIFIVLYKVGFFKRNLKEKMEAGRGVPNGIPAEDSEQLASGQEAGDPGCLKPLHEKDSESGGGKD

Assay [7] concerns the target T2, rhesus CD11a. Briefly: rhesus PBL binding. The source holds these as a separate data set.
Assay [8] addresses T1, human CD11a. Briefly: FACScan, Jurkat cells. As to the method:
as §1
To determine which CDR residues were involved in binding to human CD11a an alanine-scan (Cunningham et al., Science 244:1081 (1989)) was performed on the CDR residues of HuIgG1. Each mutant was tested for binding to CD11a on Jurkat cells. In the light chain only CDR-L3 contributes to binding.
The source holds these as a separate data set.

For assay [9], the target named is T2, rhesus CD11a. Nature of the assay: rhesus PBL binding; end of range assigned by the printed EC50s.

Changes are numbered by the printed parent chain. Read-outs that look alike come from different tables or passages of the source.

B1: chimeric MHM24 IgG1 (antibody, V domains shown)
VH: EVQLQQPGAELMRPGASVKLSCKASGYSFTGHWMNWVRQRPGQGLEWIGMIHPSDSETRLNQKFKDKATLTVDKSSSSAYMQLSSPTSEDSAVYYCARGIYFYGTTYFDYWGQGTTLTVSS
VL: DVQITQSPSYLAASPGETISINCRASKTISKYLAWYQEKPGKTNKLLIYSGSTLQSGIPSRFSGSGSGTDFTLTISSLEPEDFAMYYCQQHNEYPLTFGTGTKLELKR
notes: Murine VL and VH fused to human constant light and heavy (IgG1) chains; also called chIgG1; chimeric IgG1
Broadly, the EC50 is the concentration that produces a half-maximal response. Take B1: in the assay with human CD11a [1], the EC50 was determined as 5.2 ng/mL and the “EC50 F(ab)/EC50 F(ab)-2” value amounted to 0.006 ratio. The “IC50, blocking of cell adhesion, Jurkat: HuK” value with human CD11a [2] was 0.1 nM.

B2: HuIgG1 mutant AspH54Ala (antibody, V domains shown)
VH: EVQLVESGGGLVQPGGSLRLSCAASGYSFTGHWMNWVRQAPGKGLEWVGMIHPSASETRYNQKFKDRFTISVDKSKNTLYLQMNSLRAEDTAVYYCARGIYFYGTTYFDYWGQGTLVTVSS
VL: DIQMTQSPSSLSASVGDRVTITCRASKTISKYLAWYQQKPGKAPKLLIYSGSTLQSGVPSRFSGSGSGTDFTLTISSLQPEDFATYYCQQHNEYPLTFGQGTKVEIK
notes: HuIgG1 mutant, human IgG1; Kabat numbering
Turning to B2, the “fold improvement in binding over HuIgG1” value with rhesus CD11a [3] worked out at 3 fold. Also, the figures for the “Var.EC50/HuIgG1 EC50” value in the assay with rhesus CD11a [4] and in the assay with human CD11a [6] were 0.3 ratio and 147 ratio, respectively. Moreover, the results for the “Mutant EC50/HuIgG1 EC50” value in the assay with rhesus CD11a [5] and with human CD11a [1] were 0.3 ratio and 147 ratio, respectively.

B3: HuIgG1 mutant H2C11 (antibody, V domains shown)
VH: B2 VH with H52A, S54A, A55S, E57N
VL: DIQMTQSPSSLSASVGDRVTITCRASKTISKYLAWYQQKPGKAPKLLIYSGSTLQSGVPSRFSGSGSGTDFTLTISSLQPEDFATYYCQQHNEYPLTFGQGTKVEIKR
On to B3, for which, in the assay with rhesus CD11a [3], the EC50 came out at 0.11 nM. In addition, the “Var.EC50/HuIgG1 EC50” value with rhesus CD11a [7] was 0.002 ratio; with human CD11a [8], 24.9 ratio. Besides, the “fold improvement over EC50 of HuIgG1 for rhesus CD11a” value in the assay with rhesus CD11a [9] lay in the range of 240 to 415 fold. Moreover, in the assay with rhesus CD11a [9], the “fold weaker than EC50 of HuIgG1 for human CD11a” value lay within 3 to 5 fold.

B4: HuIgG1 mutant AspH54Lys (antibody, V domains shown)
VH: B2 VH with A55K
VL: B2 VL
notes: HuIgG1 mutant, human IgG1; Kabat numbering; also called AspH54 change to Lys
As to B4, the “Mutant EC50/HuIgG1 EC50” value with rhesus CD11a [5] is 3.8 ratio.

B5: HuIgG1 mutant AspH54Gln (antibody, V domains shown)
VH: B2 VH with A55Q
VL: B2 VL
notes: HuIgG1 mutant, human IgG1; Kabat numbering; also called AspH54 change to Gln
In the case of B5, the “Mutant EC50/HuIgG1 EC50” value turned out to be 4.4 ratio in the assay with rhesus CD11a [5] and 20 ratio with human CD11a [1].

B6: HuIgG1 mutant AspH54Ser (antibody, V domains shown)
VH: B2 VH with A55S
VL: B2 VL
notes: HuIgG1 mutant, human IgG1; Kabat numbering; also called AspH54 change to Ser
With B6, the “Mutant EC50/HuIgG1 EC50” value with rhesus CD11a [5] turned out to be 0.9 ratio.

B7: HuIgG1 mutant AspH54Asn (antibody, V domains shown)
VH: B2 VH with A55N
VL: B2 VL
notes: as for B2
On to B7, for which the “fold improvement in binding over HuIgG1” value with rhesus CD11a [3] was 10 fold. Moreover, the figures for the “Mutant EC50/HuIgG1 EC50” value in the assay with rhesus CD11a [5] and in the assay with human CD11a [1] were 0.1 ratio and 26 ratio, respectively.

B8: HuIgG1 mutant H2A1 (antibody, V domains shown)
VH: B2 VH with H52A, S54A, A55D
VL: B2 VL
notes: as for B2
In the case of B8, the “fold improvement in binding over HuIgG1” value in the assay with rhesus CD11a [3] came to 77 fold. Moreover, the “Var.EC50/HuIgG1 EC50” value in the assay with rhesus CD11a [4] amounted to 0.013 ratio; with rhesus CD11a [7], 0.013 ratio; with human CD11a [6] it was 10.8 ratio; with human CD11a [8], 10.8 ratio.

B9: HuIgG1 mutant H2 (antibody, V domains shown)
VH: B2 VH with H52A, S54A, A55D, S56A
VL: B2 VL
notes: as for B2
As for B9, the “fold better binding than HuIgG1” value with rhesus CD11a [3] stood at 18 fold. For the same molecule, the “Var.EC50/HuIgG1 EC50” value in the assay with rhesus CD11a [4] is 0.055 ratio; with human CD11a [6] it was 14.1 ratio.

These data come from patent publication US20040146507A1 (Genentech, published 2004).
